Results as given in US20070031511A1, “Method of treatment” (priority 2003, published 2007).

Experiments:
[1] = molecular target: Ggly receptor on IMGE-5 cells; assay: cell-based or functional assay
[2] = molecular target: Ggly receptor on IMGE-5 cells; assay: [125I]-Ggly binding to IMGE-5 cells in the presence of 2 moles Bi3+/mole Ggly

ED50 (nM), proliferation of IMGE cells, thymidine uptake [1]: 0.8 nM
% inhibition of binding by bismuth ions [2]: 50%
B1: glycine-extended gastrin17 (Ggly) (peptide)
peptide: XGPWLEEEEEAYGWMDFG
modifications: N-terminal pyroglutamate (Z); 125I-iodinated (IODO-GEN) in the receptor binding assay
